Experimental data from publication PMC13598245 (2026).
Read-outs that look alike come from different tables or passages of the source. Square brackets hold non-standard residues; d marks the D form. Ends that are not written are not given here. * marks the point of attachment. FITC = O=C1OC2(c3ccc(O)cc3Oc3cc(O)ccc32)c2ccc(NC(=S)*)cc21; pS = N[C@@H](COP(=O)(O)O)C(=O)O

T1: 14-3-3η (purified, recombinant) (UniProt Q04917 1-246)
T1 chain: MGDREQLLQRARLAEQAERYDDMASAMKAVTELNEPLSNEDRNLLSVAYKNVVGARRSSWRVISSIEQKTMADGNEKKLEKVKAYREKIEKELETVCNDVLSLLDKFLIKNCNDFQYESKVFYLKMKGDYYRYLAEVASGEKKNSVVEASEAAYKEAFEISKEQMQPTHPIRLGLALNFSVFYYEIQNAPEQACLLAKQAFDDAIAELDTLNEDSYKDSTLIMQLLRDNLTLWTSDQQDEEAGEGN

T2: 14-3-3θ (purified, recombinant) (UniProt P27348 1-245)
T2 chain: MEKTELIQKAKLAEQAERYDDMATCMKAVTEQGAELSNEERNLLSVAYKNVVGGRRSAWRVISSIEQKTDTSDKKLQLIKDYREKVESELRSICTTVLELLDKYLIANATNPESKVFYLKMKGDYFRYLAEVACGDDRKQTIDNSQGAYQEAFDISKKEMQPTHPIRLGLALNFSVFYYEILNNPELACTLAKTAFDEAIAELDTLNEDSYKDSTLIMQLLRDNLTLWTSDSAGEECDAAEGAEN


Tests used:
Assay in all cases: FP
[1] = target: T1, 14-3-3η (purified, recombinant)
[2] = target: T2, 14-3-3θ (purified, recombinant)
[3] = target: T1, 14-3-3η (purified, recombinant)
[4] = target: T2, 14-3-3θ (purified, recombinant)

Row | Kd [1] [µM] | Kd [2] [µM] | Kd [3] [µM] | Kd [4] [µM] | Binder
1 | 21 | 90.9 | – | – | {FITC}-RSRTP[pS]LPTPPTR [Tau^209-221 p-S214]
2 | – | – | 3.6 | 10.7 | {FITC}-RPRSR[pS]LSPGRSP [MAST1^156-168 p-S161]
3 | – | – | 12.3 | 23.7 | {FITC}-DGRRW[pS]LASLPSS [MAST1^85-97 p-S90]
